Laboratory results: US20220127332A1 (CURA THERAPEUTICS, published 2022)

Assays:
active TGFβ1 [1] = biological target: T1, active TGFβ1 (human, UniProt P01137 279-390); test: cell-based or functional assay
T1 construct: mature; also called TGFb1; human active TGFβ1

active TGFβ3 = active TGFβ3 (UniProt P10600); test: blocking of active TGFβ3 (1 ng/mL) in solution, 30 min in PBS; free TGFβ3 by ELISA
active TGFβ1 [2] = biological target: T1, active TGFβ1; test: blocking of active TGFβ1 (1 ng/mL) in solution, 30 min in PBS; free TGFβ1 by ELISA

T1 sequence (P01137 279-390 limits assumed): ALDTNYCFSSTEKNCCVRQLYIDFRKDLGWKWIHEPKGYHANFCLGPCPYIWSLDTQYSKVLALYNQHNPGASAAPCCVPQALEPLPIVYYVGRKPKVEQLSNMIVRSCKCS
Chain of active TGFβ3 (P10600 301-412): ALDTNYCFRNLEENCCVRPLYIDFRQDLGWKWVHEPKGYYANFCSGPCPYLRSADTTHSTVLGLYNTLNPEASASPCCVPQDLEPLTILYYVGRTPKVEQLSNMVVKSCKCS

| IC50 values for the inhibition of TGFb1-dependent suppression of CTLL-2 cell proliferation (active TGFβ1 [1]) | IC50 (active TGFβ3) | IC50 (active TGFβ1 [2]) | Molecule |
| --- | --- | --- | --- |
| 0.12 | 3.6 nM | 1.29 nM | FIST (monovalent FIST; fusion protein of an IL-2 polypeptide and a single sTBRII receptor polypeptide) |
|  |  | 0.02 nM | sTBRII isoform 2 (long) (receptor, UniProt P37173-2 23-191, looked up, also called TbRII (isoform II); TβRII isoform 2) TIPPHVQKSDVEMEAQKDEIICPSCNRTAHPLRHINNDMIVTDNNGAVKFPQLCKFCDVRFSTCDNQKSCMSNCSITSICEKPQEVCVAVWRKNDENITLETVCHDPKLPYHDFILEDAASPKCIMKEKKKPGETFFMCSCSSDECNDNIIFSEEYNTSNPDLLLVIFQ |
